Here are results for one molecule from publication doi:10.1101/2024.06.13.598862 (bioRxiv, 2024).

This assay addresses full-length human tau, null cysteine variant (C291S, C322S) (human, UniProt P10636-8 1-441, C291S | C322S). Kind of assay: co-phase separation.

B1: Ydj1, yeast Hsp40 (natural protein, UniProt P25491 1-409, looked up)
chain: MVKETKFYDILGVPVTATDVEIKKAYRKCALKYHPDKNPSEEAAEKFKEASAAYEILSDPEKRDIYDQFGEDGLSGAGGAGGFPGGGFGFGDDIFSQFFGAGGAQRPRGPQRGKDIKHEISASLEELYKGRTAKLALNKQILCKECEGRGGKKGAVKKCTSCNGQGIKFVTRQMGPMIQRFQTECDVCHGTGDIIDPKDRCKSCNGKKVENERKILEVHVEPGMKDGQRIVFKGEADQAPDVIPGDVVFIVSERPHKSFKRDGDDLVYEAEIDLLTAIAGGEFALEHVSGDWLKVGIVPGEVIAPGMRKVIEGKGMPIPKYGGYGNLIIKFTIKFPENHFTSEENLKKLEEILPPRIVPAIPKKATVDECVLADFDPAKYNRTRASRGGANYDSDEEEQGGEGVQCASQ
On to B1, for which the binding result is given as “binds”.
